From patent US20080050387A1 (published 2008)

B1: C-terminus of hRad9 (aa 269-391) (other)
chain: DSHSQDLGSPERHQPVPQLQAHSTPHPDDFANDDIDSYMIAMETTIGNEGSRVLPSISLSPGPQPPKSPGPHSEEEDEAEPSTVPGTPPPKKFRSLFFGSILAPVRSPQGPSPVLAEDSEGEG
notes: GAL4 DBD fusion (pM) in the two-hybrid assay; Flag-tagged (pCDNA3-Flag) in the AR N/C assay; also called C-hRad9; hRad9 C-terminus
B2: GAL4 activation domain alone (other, UniProt P04386 768-881, looked up)
chain: ANFNQSGNIADSSLSFTFTNSSNGPNLITTQTNSQALSQPIASSNVHDNFMNNEITASKIDDGNNSKPLSPGWTDQTAYNAFGITTGMFNTTTMDDVYNYLFDDEDTPPNPKKE
notes: Negative control; also called GAL4-AD
B3: ARA67/PAT1, full length (585 amino acids) (other)
chain: MAAVELEWIPETLYNTAISAVVDNYIRSRRDIRSLPENIQFDVYYKLYQQGRLCQLGSEFCELEVFAKVLRALDKRHLLHHCFQALMDHGVKVASVLAYSFSRRCSYIAESDAAVKEKAIQVGFVLGGFLSDAGWYSDAEKVFLSCLQLCTLHDEMLHWFRAVECCVRLLHVRNGNCKYHLGEETFKLAQTYMDKLSKHGQQANKAALYGELCALLFAKSHYDEAYKWCIEAMKEITAGLPVKVVVDVLRQASKACVVKREFKKAEQLIKHAVYLARDHFGSKHPKYSDTLLDYGFYLLNVDNICQSVAIYQAALDIRQSVFGGKNIHVATAHEDLAYSSYVHQYSSGKFDNALFHAERAIGIITHILPEDHLLLASSKRVKALILEEIAIDCHNKETEQRLLQEAHDLHLSSLQLAKKAFGEFNVQTAKHYGNLGRLYQSMRKFKEAEEMHIKAIQIKEQLLGQEDYEVALSVGHLASLYNYDMNQYENAEKLYLRSIAIGKKLFGEGYSGLEYDYRGLIKLYNSIGNYEKVFEYHNVLSNWNRLRDRQYSVTDALEDVSTSPQSTEEVVQSFLISQNVEGPSC
notes: Used as GST-ARA67 on beads, as [35S]methionine-labeled ARA67, as GAL4 DBD fusion (pM-ARA67) and as HA-ARA67 (pKH3) in COS-1 cells; also called ARA671-585; GST-ARA67
B4: ARA67 8-140 (other)
chain: WIPETLYNTAISAVVDNYIRSRRDIRSLPENIQFDVYYKLYQQGRLCQLGSEFCELEVFAKVLRALDKRHLLHHCFQALMDHGVKVASVLAYSFSRRCSYIAESDAAVKEKAIQVGFVLGGFLSDAGWYSDAE
notes: GST fusion on beads
B5: ARA67 281-550 (other)
chain: GSKHPKYSDTLLDYGFYLLNVDNICQSVAIYQAALDIRQSVFGGKNIHVATAHEDLAYSSYVHQYSSGKFDNALFHAERAIGIITHILPEDHLLLASSKRVKALILEEIAIDCHNKETEQRLLQEAHDLHLSSLQLAKKAFGEFNVQTAKHYGNLGRLYQSMRKFKEAEEMHIKAIQIKEQLLGQEDYEVALSVGHLASLYNYDMNQYENAEKLYLRSIAIGKKLFGEGYSGLEYDYRGLIKLYNSIGNYEKVFEYHNVLSNWNRLRDRQ
notes: GST fusion on beads
B6: PCNA-like domain of hRad9 (N-hRad9, aa 1-270) (other)
chain: MKCLVTGGNVKVLGKAVHSLSRIGDELYLEPLEDGLSLRTVNSSRSAYACFLFAPLFFQQYQAATPGQDLLRCKILMKSFLSVFRSLAMLEKTVEKCCISLNGRSSRLVVQLHCKFGVRKTHNLSFQDCESLQAVFDPASCPHMLRAPARVLGEAVLPFSPALAEVTLGIGRGRRVILRSYHEEEADSTAKAMVTEMCLGEEDFQQLQAQEGVAITFCLKEFRGLLSFAESANLNLSIHFDAPGRPAIFTIKDSLLDGHFVLATLSDTDS
notes: GAL4 DBD fusion (pM) in the two-hybrid assay; Flag-tagged (pCDNA3-Flag) in the AR N/C assay; also called N-terminus of hRad9
B7: AR N-terminus, full length ARN (ARN1-556) (receptor)
chain: MEVQLGLGRVYPRPPSKTYRGAFQNLFQSVREVIQNPGPRHPEAASAAPPGASLLLLQQQQQQQQQQQQQQQQQQQQQETSPRQQQQQQGEDGSPQAHRRGPTGYLVLDEEQQPSQPQSALECHPERGCVPEPGAAVAASKGLPQQLPAPPDEDDSAAPSTLSLLGPTFPGLSSCSADLKDILSEASTMQLLQQQQQEAVSEGSSSGRAREASGAPTSSKDNYLGGTSTISDNAKELCKAVSVSMGLGVEALEHLSPGEQLRGDCMYAPLLGVPPAVRPTPCAPLAECKGSLLDDSAGKSTEDTAEYSPFKGGYTKGLEGESLGCSGSAAAGSSGTLELPSTLSLYKSGALDEAAAYQSRDYYNFPLALAGPPPPPPPPHPHARIKLENPLDYGSAWAAAAAQCRYGDLASLHGAGAAGPGSGSPSAAASSSWHTLFTAEEGQLYGPCGGGGGGGGGGGGGGGGGGGGGGGGEAGAVAPYGYTRPPQGLAGQESDFTAPDVWYPGGMVSRVPYPSPTCVKSEMGPWMDSYSGPYGDMRLETARDHVLPIDYYFPPQ

Key:
[1] = biological target: T1, VP16-AR containing the residues 37 to 919 (human, UniProt P10275 37-920); experiment: mammalian two-hybrid in PC-3 cells, GAL4 DBD-hRad9 constructs + VP16-AR, 10 nM DHT
T1 construct: also called pCMX-VP16-AR; full length AR fused to VP16
T1 sequence: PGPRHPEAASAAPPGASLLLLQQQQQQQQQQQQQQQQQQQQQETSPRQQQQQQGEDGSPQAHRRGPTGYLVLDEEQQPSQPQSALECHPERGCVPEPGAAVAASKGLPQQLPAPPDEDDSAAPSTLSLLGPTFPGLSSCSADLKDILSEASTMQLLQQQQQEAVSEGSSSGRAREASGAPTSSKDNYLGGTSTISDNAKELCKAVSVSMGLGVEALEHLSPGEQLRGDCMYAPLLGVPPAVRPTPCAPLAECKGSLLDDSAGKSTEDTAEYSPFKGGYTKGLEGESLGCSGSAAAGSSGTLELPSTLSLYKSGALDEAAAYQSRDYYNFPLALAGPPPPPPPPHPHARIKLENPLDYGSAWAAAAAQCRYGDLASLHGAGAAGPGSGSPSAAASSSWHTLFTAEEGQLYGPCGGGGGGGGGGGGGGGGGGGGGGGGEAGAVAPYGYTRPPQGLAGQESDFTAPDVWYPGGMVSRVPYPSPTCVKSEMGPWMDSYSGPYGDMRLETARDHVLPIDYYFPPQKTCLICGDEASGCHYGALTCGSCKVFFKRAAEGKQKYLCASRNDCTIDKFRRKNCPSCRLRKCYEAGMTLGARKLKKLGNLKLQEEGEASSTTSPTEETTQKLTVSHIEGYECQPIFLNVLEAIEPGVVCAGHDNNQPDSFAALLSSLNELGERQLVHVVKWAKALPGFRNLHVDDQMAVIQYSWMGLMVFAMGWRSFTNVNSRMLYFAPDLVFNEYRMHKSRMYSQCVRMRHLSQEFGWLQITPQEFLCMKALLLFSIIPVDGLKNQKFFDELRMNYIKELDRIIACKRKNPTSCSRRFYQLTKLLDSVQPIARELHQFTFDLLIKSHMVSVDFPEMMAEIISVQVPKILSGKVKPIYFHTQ

AR DBD-LBD = biological target: T2, AR DBD-LBD (human, UniProt P10275 557-920); experiment: yeast two-hybrid, liquid β-gal assay, bait GAL4 DBD-AR-DBD-LBD
T2 construct: also called GAL4-DBD-AR-DBD-LBD; GAL4-AR-DBD-LBD
T2 sequence: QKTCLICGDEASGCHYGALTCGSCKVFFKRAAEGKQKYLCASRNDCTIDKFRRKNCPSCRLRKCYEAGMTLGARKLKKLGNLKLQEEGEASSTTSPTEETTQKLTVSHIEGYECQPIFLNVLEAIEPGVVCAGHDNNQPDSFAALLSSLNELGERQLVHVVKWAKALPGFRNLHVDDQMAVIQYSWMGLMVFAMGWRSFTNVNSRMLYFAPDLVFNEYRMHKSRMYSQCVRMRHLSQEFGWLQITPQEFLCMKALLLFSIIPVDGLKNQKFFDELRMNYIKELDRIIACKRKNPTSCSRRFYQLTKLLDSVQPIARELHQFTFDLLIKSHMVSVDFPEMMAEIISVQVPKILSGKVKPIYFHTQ
Description: Liquid β-gal assay was performed as described previously.
In order to screen proteins with ligand-dependent interaction with AR, the human AR DBD-LBD was fused with the DBD of GAL4 functioned as bait in yeast two-hybrid screening (FIG. 23A). A pretransformed normal human ovary cDNA library was screened in the presence of 10 nM DHT.

[2] = biological target: T3, androgen receptor (AR), full length (human, UniProt P10275 1-920); experiment: GST pull-down: GST-ARA67 with 35S-labeled AR, with or without 10 uM DHT
T3 construct: also called AR-FL; pCMV-AR
T3 sequence: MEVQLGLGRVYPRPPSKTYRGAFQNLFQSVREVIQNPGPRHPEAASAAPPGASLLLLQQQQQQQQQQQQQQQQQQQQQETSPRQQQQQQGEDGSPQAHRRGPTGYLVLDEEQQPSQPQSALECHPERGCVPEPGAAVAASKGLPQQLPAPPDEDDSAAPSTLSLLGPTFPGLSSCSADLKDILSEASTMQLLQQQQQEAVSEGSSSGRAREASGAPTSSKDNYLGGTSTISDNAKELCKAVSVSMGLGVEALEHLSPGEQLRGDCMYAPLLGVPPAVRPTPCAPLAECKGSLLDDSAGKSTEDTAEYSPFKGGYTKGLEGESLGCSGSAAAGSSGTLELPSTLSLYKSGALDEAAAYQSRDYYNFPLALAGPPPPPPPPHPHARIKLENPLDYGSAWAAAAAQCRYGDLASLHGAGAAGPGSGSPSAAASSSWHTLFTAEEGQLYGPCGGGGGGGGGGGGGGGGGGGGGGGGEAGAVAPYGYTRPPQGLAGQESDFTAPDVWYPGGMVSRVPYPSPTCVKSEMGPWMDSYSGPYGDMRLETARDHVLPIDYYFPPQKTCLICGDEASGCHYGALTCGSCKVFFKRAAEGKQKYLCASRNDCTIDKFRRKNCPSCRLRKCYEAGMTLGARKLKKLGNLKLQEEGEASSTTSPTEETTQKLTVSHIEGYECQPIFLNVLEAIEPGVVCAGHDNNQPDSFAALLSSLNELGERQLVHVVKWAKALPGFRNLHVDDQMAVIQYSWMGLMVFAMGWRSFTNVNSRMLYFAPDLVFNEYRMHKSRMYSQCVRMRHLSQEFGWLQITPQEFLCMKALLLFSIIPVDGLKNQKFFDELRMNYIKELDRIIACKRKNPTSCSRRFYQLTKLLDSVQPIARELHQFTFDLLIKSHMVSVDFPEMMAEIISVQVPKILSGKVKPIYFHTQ
Description: Pulled-down proteins were separated on SDS-PAGE and visualized by autoradiography. […] After transfection cells were treated with or without 10 nM DHT for 24 h before harvesting. 500 μg total cell lysate proteins from each samples were immunoprecipitated with anti-AR antibody for Western blot analysis with anti-AR and anti-HA antibody (Roche).
The immunoprecipitates were analyzed by Western blotting.

[3] = biological target: B7; experiment: GST pull-down: GST-ARA67 fragments with 35S-labeled ARN
[4] = biological target: T1, VP16-AR containing the residues 37 to …; experiment: mammalian two-hybrid in PC-3 cells, GAL4 DBD-N-hRad9 + VP16-AR, 10 nM DHT
[5] = biological target: B3; experiment: mammalian two-hybrid in H1299 cells, pM-ARA67 + pVP16-ARN, pG5-Luc

## B1
[1]
  binding result: binds

## B2
AR DBD-LBD
  binding result: no binding

## B3
[2]
  binding result: binds

## B4
[3]
  binding result: binds

## B5
[3]
  binding result: binds

## B6
[4]
  binding result: no binding

## B7
[5]
  binding result: binds
